Data: patent US20260055200A1, “COMBINATION THERAPIES” (Alligator Bioscience AB, priority 2022, published 2026)
“Also recorded” adds a separate entry of the source. Like-named read-outs stand apart in the source and are kept apart here.

Experiments:
[1] = tested on: advanced stage solid tumours; details: cited from earlier work
[2] = tested on: human tumours transplanted into NSG mice; bladder cancer cells in hCD40tg mice; details: cited from earlier work
[3] = tested on: advanced stage solid malignancies; details: cited from earlier work
[4] = tested on: metastatic pancreatic ductal adenocarcinoma; experiment: OPTIMIZE-1 anti-tumour activity per RECIST v. 1.1 (ORR, BOR, DCR, DoR, time to progression, PFS, OS); type: in vivo, human
Experimental: The interim analysis was based on objective response rate (ORR) observed for all patients dosed at the mitazalimab RP2D. The interim analysis included efficacy data up to 17 weeks of study treatment (8 cycles for mFOLFIRINOX and 4 cycles for gemcitabine plus nab-paclitaxel).
A CT scan is performed at screening (within 28 days of first dose), 9 weeks after start of study treatment (end of cycle 4 for mFOLFIRINOX combination and at end of Cycle 2 for gemcitabine plus nab-paclitaxel treatment) and thereafter at every 8th week assuming no treatment delays. Additional CT scans may be performed at the discretion of the Investigator at unscheduled visits. The CT scans were evaluated according to RECIST v. […] Patients with response (PR or CR) can have a confirmatory CT scan at least 4 weeks later to confirm the response.
The evaluation of tumour response was done according to RECIST v. 1.1 by the investigational sites using CT scans according to Example 3 RECIST v. […] Patients with PD can discontinue study treatment. However, patients with suspected progression are allowed to continue on treatment if they are considered to be clinically stable in the opinion of the Investigator until clinical or radiological progression is documented.
For the interim analysis, the ORR was based on the response evaluation after 8 cycles for mitazalimab in combination with mFOLFIRINOX or 4 cycles for mitazalimab in combination with gemcitabine plus nab-paclitaxel (i.e., approximately 4 months after first dose). […] In addition, ORR was presented for each study visit. Patients not evaluable for ORR and who completed at least 2 cycles were considered as non-responders.
All secondary efficacy endpoint were presented using descriptive statistics. Best Overall Response (BOR) for each patient will be defined as the best response from RECIST v. 1.1 categories CR, PR, SD and PD at any time during the study. Disease control rate will be defined as either CR, PR or SD at each visit as determined by RECIST v. […] The duration of response (DoR) was defined as number of days from initial response of CR or PR to progressive disease or death due to underlying disease, whichever came first. Duration of Stable Disease (SD) was defined as number of days from first dose of mitazalimab to progressive disease or death, whichever came first. Time to next anti-cancer therapy was defined as number of days from the time from first dose of mitazalimab to next treatment initiated.

[5] = 450 μg/kg mitazalimab, N = 5, Table 42
[6] = 450 μg/kg mitazalimab, N = 5, safety set, Table 25
[7] = 900 μg/kg mitazalimab + mFOLFIRINOX, FAS N = 23, futility analysis, responses need not be confirmed
[8] = 900 μg/kg mitazalimab + mFOLFIRINOX, FAS N = 57
[9] = 900 μg/kg mitazalimab + mFOLFIRINOX, FAS N = 57, including unconfirmed responses
[10] = 900 μg/kg mitazalimab + mFOLFIRINOX, FAS N = 57, 95% CI (5.8-9.4)
[11] = 900 μg/kg mitazalimab + mFOLFIRINOX, FAS N = 57, first block of Table 49
[12] = 900 μg/kg mitazalimab + mFOLFIRINOX, FAS N = 57, second block of Table 49
[13] = 900 μg/kg mitazalimab + mFOLFIRINOX, FAS, n = 18
[14] = 900 μg/kg mitazalimab, N = 23, FAS, data cut-off 2022 Dec. 8
[15] = 900 μg/kg mitazalimab, N = 38, safety set, Table 25
[16] = 900 μg/kg mitazalimab, N = 65, Table 42
[17] = Overall, N = 43, safety set, Table 25
[18] = futility analysis (FAS), 900 μg/kg mitazalimab and mFOLFIRINOX, 23 patients
[19] = individual patients, End of Treatment visit, 900 μg/kg mitazalimab + mFOLFIRINOX, futility analysis
[20] = individual patients, Unscheduled visit, 900 μg/kg mitazalimab + mFOLFIRINOX, futility analysis
[21] = individual patients, visit Cycle 4, 900 μg/kg mitazalimab + mFOLFIRINOX, futility analysis
[22] = individual patients, visit Cycle 8, 900 μg/kg mitazalimab + mFOLFIRINOX, futility analysis

B1: Mitazalimab: agonistic, human monoclonal (IgG1) antibody targeting CD40 (antibody, chains of the INN, looked up, V domains shown)
VH: EVQLLESGGGLVQPGGSLRLSCAASGFTFSTYGMHWVRQAPGKGLEWLSYISGGSSYIFYADSVRGRFTISRDNSENALYLQMNSLRAEDTAVYYCARILRGGSGMDLWGQGTLVTVSS
VL: QSVLTQPPSASGTPGQRVTISCTGSSSNIGAGYNVYWYQQLPGTAPKLLIYGNINRPSGVPDRFSGSKSGTSASLAISGLRSEDEADYYCAAWDKSISGLVFGGGTKLTVL
doses shown safe and well tolerated ([1]; Phase I study NCT02829099): up to 1200 μg/kg
grade of most drug related adverse events ([1]; Phase I study NCT02829099): grade 1 or 2
patients who experienced a DLT ([1]; headache 5 days, grade 3 liver enzyme with grade 2 bilirubin elevation): Two
MTD ([1]; human, in vivo, iv): No MTD was identified
duration of SD in one of seven pancreatic cancer patients ([1]; in vivo): more than 6 months
response observed ([1]; patient with renal cell cancer, 1200 μg/kg): partial response (PR)
time on study of the patient with PR ([1]; renal cell cancer, 1200 μg/kg, fourteen cycles): 9.2 months
immunity to tumour re-challenge ([2]; bladder cancer cells in hCD40tg mice): at least 5 months
effect on tumour growth and survival in combination ([2]; combined with checkpoint inhibitors, vaccination or chemotherapy (e.g. mFOLFIRINOX), hCD40tg mice): synergistically enhanced effect
anti-tumour efficacy in vivo ([2]; human tumours in NSG mice and hCD40tg mice): immune-mediated and antibody-dependent cell-mediated cytotoxicity (ADCC)-dependent anti-tumour efficacy
best response ([3]; 400 μg/kg intratumoural): stable disease (SD) in one patient with renal cell carcinoma
patients with increases in liver enzymes or bilirubin ([3]; IV administration): 3 of 5
dose-limiting toxicities (DLTs) observed ([3]; both intratumoural: grade 3 abdominal pain, grade 3 cholecystitis): Two
maximum tolerated dose (MTD) ([3]; in vivo): No maximum tolerated dose (MTD) was identified
patients with increases in liver enzymes or bilirubin ([3]; intratumoural administration): 9 of 18
Discontinued study: Death due to disease progression, number of patients [4, 5]: 4
Discontinued study: Death due to disease progression, percentage relative to number discontinued [4, 5]: 80.0%
Discontinued treatment: Death, number of patients [4, 5]: 0
Discontinued treatment: Death, percentage relative to number discontinued [4, 5]: 0.0%
Discontinued treatment: No longer clinically benefiting, number of patients [4, 5]: 0
Discontinued treatment: No longer clinically benefiting, percentage relative to number discontinued [4, 5]: 0.0%
Discontinued treatment: Progressive disease, number of patients [4, 5]: 4
Discontinued treatment: Progressive disease, percentage relative to number discontinued [4, 5]: 80.0%
Discontinued study: Death due to disease progression, number of patients [4, 6]: 2
Discontinued study: Death due to disease progression, percentage of patients [4, 6]: (40.0) %
Discontinued treatment: Clear clinical deterioration, number of patients [4, 6]: 0
Discontinued treatment: Clear clinical deterioration, percentage of patients [4, 6]: (0.0) %
Discontinued treatment: Death due to disease progression, number of patients [4, 6]: 2
Discontinued treatment: Death due to disease progression, percentage of patients [4, 6]: (40.0) %
Discontinued treatment: Progressive disease, number of patients [4, 6]: 2
Discontinued treatment: Progressive disease, percentage of patients [4, 6]: (40.0) %
Disease control rate (FAS) ([4]; 900 μg/kg Mitazalimab (N = 57) with mFOLFIRINOX, CR, PR or SD as best overall response, RECIST 1.1): 44 (77.2)
Disease control rate (CR, PR or SD), % ([4]; 900 μg/kg mitazalimab + mFOLFIRINOX, FAS N = 23, futility analysis): (91.3) %
Best Overall Response: Partial response, % [4, 7]: (52.2) %
Best Overall Response: Progressive disease, % [4, 7]: (8.7) %
Best Overall Response: Stable disease, % [4, 7]: (39.1) %
Responders (complete or partial response, RECIST 1.1), % [4, 7]: (52.2) %
BOR: Not evaluable, number of patients [4, 8]: 1
BOR: Not evaluable, percentage of patients [4, 8]: (1.8) %
Time to progression: Censored patients, % [4, 8]: (54.4) %
Time to progression: Patients with event, % [4, 8]: (45.6) %
BOR: Complete response, number of patients [4, 9]: 0
BOR: Complete response, percentage of patients [4, 9]: (0.0) %
BOR: Partial response, number of patients [4, 9]: 25
BOR: Partial response, percentage of patients [4, 9]: (43.9) %
BOR: Progressive disease, number of patients [4, 9]: 12
BOR: Progressive disease, percentage of patients [4, 9]: (21.1) %
BOR: Stable disease, number of patients [4, 9]: 19
BOR: Stable disease, percentage of patients [4, 9]: (33.3) %
ORR: Confidence Interval of responders (two-sided exact binomial 90%) [4, 9]: 32.6-55.6
ORR: Responders, number of patients [4, 9]: 25
ORR: Responders, percentage of patients [4, 9]: (43.9) %
Progression-free survival: Median time to event [4, 10]: 7.2 months
Time to progression: Median time to event [4, 10]: 7.2 months
Progression-free survival: Censored patients, % [4, 11]: (52.6) %
Progression-free survival: Patients with event, % [4, 11]: (47.4) %
Overall survival: Censored patients, % [4, 12]: (78.9) %
Overall survival: Patients with event, % [4, 12]: (21.1) %
Duration of response: Censored patients, % [4, 13]: (72.2) %
Duration of response: Patients with event, % [4, 13]: (27.8) %
Time to response: Median time to event ([4]; 900 μg/kg mitazalimab + mFOLFIRINOX, FAS, n = 18, 95% CI (1.9-3.7)): 2.2 months
Duration of response: Median time to event ([4]; 900 μg/kg mitazalimab + mFOLFIRINOX, FAS, n = 18, 95% CI (5.5; NE)): 8.7 months
Discontinued study: Death due to disease progression, number of patients [4, 14]: 1
Discontinued study: Death due to disease progression, percentage of patients [4, 14]: (4.3) %
Discontinued treatment: Clear clinical deterioration, number of patients [4, 14]: 1
Discontinued treatment: Clear clinical deterioration, percentage of patients [4, 14]: (4.3) %
Discontinued treatment: Death due to disease progression, number of patients [4, 14]: 1
Discontinued treatment: Death due to disease progression, percentage of patients [4, 14]: (4.3) %
Discontinued treatment: Progressive disease, number of patients [4, 14]: 2
Discontinued treatment: Progressive disease, percentage of patients [4, 14]: (8.7) %
Discontinued study: Death due to disease progression, number of patients [4, 15]: 1
Discontinued study: Death due to disease progression, percentage of patients [4, 15]: (2.6) %
Discontinued treatment: Clear clinical deterioration, number of patients [4, 15]: 1
Discontinued treatment: Clear clinical deterioration, percentage of patients [4, 15]: (2.6) %
Discontinued treatment: Death due to disease progression, number of patients [4, 15]: 1
Discontinued treatment: Death due to disease progression, percentage of patients [4, 15]: (2.6) %
Discontinued treatment: Progressive disease, number of patients [4, 15]: 3
Discontinued treatment: Progressive disease, percentage of patients [4, 15]: (7.89) %
Discontinued study: Death due to disease progression, number of patients [4, 16]: 15
Discontinued study: Death due to disease progression, percentage relative to number discontinued [4, 16]: 83.3%
Discontinued treatment: Death, number of patients [4, 16]: 1
Discontinued treatment: Death, percentage relative to number discontinued [4, 16]: 3.0%
Discontinued treatment: No longer clinically benefiting, number of patients [4, 16]: 3
Discontinued treatment: No longer clinically benefiting, percentage relative to number discontinued [4, 16]: 9.1%
Discontinued treatment: Progressive disease, number of patients [4, 16]: 19
Discontinued treatment: Progressive disease, percentage relative to number discontinued [4, 16]: 57.6%
Discontinued study: Death due to disease progression, number of patients [4, 17]: 3
Discontinued study: Death due to disease progression, percentage of patients [4, 17]: (7.0) %
Discontinued treatment: Clear clinical deterioration, number of patients [4, 17]: 1
Discontinued treatment: Clear clinical deterioration, percentage of patients [4, 17]: (2.3) %
Discontinued treatment: Death due to disease progression, number of patients [4, 17]: 3
Discontinued treatment: Death due to disease progression, percentage of patients [4, 17]: (7.0) %
Discontinued treatment: Progressive disease, number of patients [4, 17]: 5
Discontinued treatment: Progressive disease, percentage of patients [4, 17]: (11.6) %
Discontinued treatment: Death, number of patients ([4]; Overall, Table 42): 1
Discontinued treatment: Death, percentage relative to number discontinued ([4]; Overall, Table 42): 2.6%
Discontinued treatment: No longer clinically benefiting, number of patients ([4]; Overall, Table 42): 3
Discontinued treatment: No longer clinically benefiting, percentage relative to number discontinued ([4]; Overall, Table 42): 7.7%
Discontinued treatment: Progressive disease, number of patients ([4]; Overall, Table 42): 24
Discontinued treatment: Progressive disease, percentage relative to number discontinued ([4]; Overall, Table 42): 61.5%
ORR [4, 18]: 52.2%
disease control rate [4, 18]: 91.3%
responders with a confirmed response via a subsequent scan ([4]; futility analysis, 900 μg/kg mitazalimab and mFOLFIRINOX): 8 out of 12
Non-target lesion(s) response [4, 19]: Non-CR/non-PD
Overall response [4, 19]: PD (progressive disease (PD))
Target lesion(s) response [4, 19]: PD (progressive disease (PD))
Non-target lesion(s) response [4, 20]: Non-CR/non-PD
Overall response [4, 20]: PD (progressive disease (PD)); also recorded: SD (stable disease (SD))
Target lesion(s) response [4, 20]: PD (progressive disease (PD)); also recorded: SD (stable disease (SD))
Non-target lesion(s) response [4, 21]: Non-CR/non-PD
Overall response [4, 21]: SD (stable disease (SD))
Target lesion(s) response [4, 21]: SD (stable disease (SD))
Non-target lesion(s) response [4, 22]: Non-CR/non-PD
Overall response [4, 22]: SD (stable disease (SD)); also recorded: PD (progressive disease (PD))
Target lesion(s) response [4, 22]: SD (stable disease (SD)); also recorded: PD (progressive disease (PD))
Best Overall Response ([4]; individual patients, 900 μg/kg mitazalimab + mFOLFIRINOX, futility analysis, responses need not be confirmed): PD (progressive disease (PD)); also recorded: SD (stable disease (SD))
